{"source": "IntAct's records for PubMed 21481780", "parents": {"B1": {"name": "Phosphotransferase RcsD (Escherichia coli (strain K12)), P39838 (parent)", "chain": "MRQKETTATTRFSLLPGSITRFFLLLIIVLLVTMGVMVQSAVNAWLKDKSYQIVDITHAIQKRVDNWRYVTWQIYDNIAATTSPSSGEGLQETRLKQDVYYLEKPRRKTEALIFGSHDNSTLEMTQRMSTYLDTLWGAENVPWSMYYLNGQDNSLVLISTLPLKDLTSGFKESTVSDIVDSRRAEMLQQANALDERESFSNMRRLAWQNGHYFTLRTTFNQPGHLATVVAFDLPINDLIPPGMPLDSFRLEPDATATGNNDNEKEGTDSVSIHFNSTKIEISSALNSTDMRLVWQVPYGTLLLDTLQNILLPLLLNIGLLALALFGYTTFRHFSSRSTENVPSTAVNNELRILRAINEEIVSLLPLGLLVHDQESNRTVISNKIADHLLPHLNLQNITTMAEQHQGIIQATINNELYEIRMFRSQVAPRTQIFIIRDQDREVLVNKKLKQAQRLYEKNQQGRMIFMKNIGDALKEPAQSLAESAAKLNAPESKQLANQADVLVRLVDEIQLANMLADDSWKSETVLFSVQDLIDEVVPSVLPAIKRKGLQLLINNHLKAHDMRRGDRDALRRILLLLMQYAVTSTQLGKITLEVDQDESSEDRLTFRILDTGEGVSIHEMDNLHFPFINQTQNDRYGKADPLAFWLSDQLARKLGGHLNIKTRDGLGTRYSVHIKMLAADPEVEEEEERLLDDVCVMVDVTSAEIRNIVTRQLENWGATCITPDERLISQDYDIFLTDNPSNLTASGLLLSDDESGVREIGPGQLCVNFNMSNAMQEAVLQLIEVQLAQEEVTESPLGGDENAQLHASGYYALFVDTVPDDVKRLYTEAATSDFAALAQTAHRLKGVFAMLNLVPGKQLCETLEHLIREKDVPGIEKYISDIDSYVKSLL", "partner": "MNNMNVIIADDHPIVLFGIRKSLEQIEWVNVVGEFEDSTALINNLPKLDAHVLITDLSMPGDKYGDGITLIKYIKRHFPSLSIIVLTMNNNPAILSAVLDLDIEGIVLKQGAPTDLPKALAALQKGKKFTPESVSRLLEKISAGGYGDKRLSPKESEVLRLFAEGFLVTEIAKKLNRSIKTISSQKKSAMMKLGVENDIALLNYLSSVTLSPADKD"}}, "data": [{"variants_of": "B1", "settings": "with rcsb_ecoli rcsB", "values": [{"variant": "N715A;Q776A;L780A", "effect of a mutation on the interaction": "decreasing interaction"}]}]}
